Experimental data reported in patent US7122343 (WARF WISCONSIN ALUMNI RESEARCH FOUNDATION, dated 2006).

Target: T1, hMre11-hRad50 protein complex (human, UniProt P49959 2-708; Q92878 1-1312)
T1 construct: Endogenous complex from human cells; It also holds p95 and a protein of about 400 kDa; also called hMre11/hRad50 complex; hRad50/hMre11 complex
Assay: co-immunoprecipitation

T1 sequence (P49959 2-708 limits assumed, chain 1 of 2): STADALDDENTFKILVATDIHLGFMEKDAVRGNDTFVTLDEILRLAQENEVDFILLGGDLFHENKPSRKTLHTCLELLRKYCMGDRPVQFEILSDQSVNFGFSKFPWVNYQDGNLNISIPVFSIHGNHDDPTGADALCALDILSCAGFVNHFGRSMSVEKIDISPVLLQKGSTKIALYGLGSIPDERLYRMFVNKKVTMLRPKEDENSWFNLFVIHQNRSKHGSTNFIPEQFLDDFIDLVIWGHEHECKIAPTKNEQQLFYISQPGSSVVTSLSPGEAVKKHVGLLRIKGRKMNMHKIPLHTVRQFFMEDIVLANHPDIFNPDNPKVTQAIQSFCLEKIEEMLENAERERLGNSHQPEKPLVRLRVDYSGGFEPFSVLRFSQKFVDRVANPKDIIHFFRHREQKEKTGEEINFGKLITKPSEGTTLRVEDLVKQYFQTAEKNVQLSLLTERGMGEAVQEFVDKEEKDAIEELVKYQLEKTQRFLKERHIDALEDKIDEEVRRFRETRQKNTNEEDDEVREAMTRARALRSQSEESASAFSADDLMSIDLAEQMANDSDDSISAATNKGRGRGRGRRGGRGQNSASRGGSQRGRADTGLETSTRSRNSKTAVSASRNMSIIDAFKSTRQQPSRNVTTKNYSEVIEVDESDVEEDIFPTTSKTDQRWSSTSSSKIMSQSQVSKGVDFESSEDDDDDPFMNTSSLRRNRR
T1 sequence (Q92878 whole entry, chain 2 of 2): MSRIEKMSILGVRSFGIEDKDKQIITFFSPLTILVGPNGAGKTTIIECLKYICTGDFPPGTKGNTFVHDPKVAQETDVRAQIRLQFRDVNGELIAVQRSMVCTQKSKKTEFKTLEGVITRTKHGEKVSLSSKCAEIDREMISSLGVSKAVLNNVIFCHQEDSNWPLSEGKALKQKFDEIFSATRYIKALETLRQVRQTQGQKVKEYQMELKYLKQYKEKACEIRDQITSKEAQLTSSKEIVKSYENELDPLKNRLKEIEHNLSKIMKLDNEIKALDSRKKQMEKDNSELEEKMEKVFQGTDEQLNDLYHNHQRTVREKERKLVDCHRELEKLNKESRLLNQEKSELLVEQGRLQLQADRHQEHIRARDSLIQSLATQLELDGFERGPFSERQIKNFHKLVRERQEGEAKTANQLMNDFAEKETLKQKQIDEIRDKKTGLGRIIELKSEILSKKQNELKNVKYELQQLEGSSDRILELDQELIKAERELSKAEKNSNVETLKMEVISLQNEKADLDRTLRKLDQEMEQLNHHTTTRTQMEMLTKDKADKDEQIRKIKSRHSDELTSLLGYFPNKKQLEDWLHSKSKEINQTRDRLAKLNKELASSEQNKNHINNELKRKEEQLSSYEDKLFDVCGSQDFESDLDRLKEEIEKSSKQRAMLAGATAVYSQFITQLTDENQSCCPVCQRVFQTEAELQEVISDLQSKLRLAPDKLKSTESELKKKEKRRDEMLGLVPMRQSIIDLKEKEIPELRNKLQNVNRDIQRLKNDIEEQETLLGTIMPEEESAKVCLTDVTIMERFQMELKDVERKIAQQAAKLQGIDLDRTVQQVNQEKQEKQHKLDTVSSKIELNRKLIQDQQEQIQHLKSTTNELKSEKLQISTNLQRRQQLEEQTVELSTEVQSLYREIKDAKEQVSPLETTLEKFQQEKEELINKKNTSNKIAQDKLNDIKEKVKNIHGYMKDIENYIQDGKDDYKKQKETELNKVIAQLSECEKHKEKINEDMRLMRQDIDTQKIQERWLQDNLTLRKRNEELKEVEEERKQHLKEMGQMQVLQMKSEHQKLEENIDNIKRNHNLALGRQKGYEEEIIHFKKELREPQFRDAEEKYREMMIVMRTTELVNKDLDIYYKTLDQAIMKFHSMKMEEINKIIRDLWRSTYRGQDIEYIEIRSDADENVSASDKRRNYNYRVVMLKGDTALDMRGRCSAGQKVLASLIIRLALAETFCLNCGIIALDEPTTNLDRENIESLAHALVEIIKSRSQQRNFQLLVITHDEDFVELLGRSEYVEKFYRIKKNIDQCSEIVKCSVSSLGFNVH

binding result: no binding
B1: hRad51 (other, human, UniProt Q06609 2-339, looked up)
chain: AMQMQLEANADTSVEEESFGPQPISRLEQCGINANDVKKLEEAGFHTVEAVAYAPKKELINIKGISEAKADKILAEAAKLVPMGFTTATEFHQRRSEIIQITTGSKELDKLLQGGIETGSITEMFGEFRTGKTQICHTLAVTCQLPIDRGGGEGKAMYIDTEGTFRPERLLAVAERYGLSGSDVLDNVAYARAFNTDHQTQLLYQASAMMVESRYALLIVDSATALYRTDYSGRGELSARQMHLARFLRMLLRLADEFGVAVVITNQVVAQVDGAAMFAADPKKPIGGNIIAHASTTRLYLRKGRGETRICKIYDSPCLPEAEAMFAINADGVGDAKD
notes: also called human Rad51 homolog
